In patent US20240327526A1 (Amgen, published 2024):

Columns and labels:
ActRIIA-huFc [1] = target: T1, ActRIIA-huFc (human); assay: BIAcore
T1 construct: Used biotinylated in the ELISA screens; also called huActRIIA-huFc; biotin-ActRIIA-huFc

[2] = target: activin type IIA receptor (ActRIIA) on C2C12/pMARE-luc cells co-transfected with ALK4 (Homo sapiens (Human), UniProt P27037 20-513); assay: cell-based or functional assay
[3] = target: T2, activin type IIB receptor (ActRIIB) on C2C12/pMARE-luc cells co-transfected with ALK4 (Homo sapiens (Human), UniProt Q13705 19-134); assay: cell-based or functional assay
T2 chain: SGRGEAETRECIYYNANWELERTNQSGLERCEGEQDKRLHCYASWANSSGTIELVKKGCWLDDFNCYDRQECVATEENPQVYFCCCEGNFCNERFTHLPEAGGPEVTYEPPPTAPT

ActRIIA-huFc [4] = target: T1, ActRIIA-huFc; assay: binding affinity, method not stated
ActRIIA-huFc [5] = target: T1, ActRIIA-huFc; assay: KinExA

T1 sequence (chain, as listed by the source limits assumed): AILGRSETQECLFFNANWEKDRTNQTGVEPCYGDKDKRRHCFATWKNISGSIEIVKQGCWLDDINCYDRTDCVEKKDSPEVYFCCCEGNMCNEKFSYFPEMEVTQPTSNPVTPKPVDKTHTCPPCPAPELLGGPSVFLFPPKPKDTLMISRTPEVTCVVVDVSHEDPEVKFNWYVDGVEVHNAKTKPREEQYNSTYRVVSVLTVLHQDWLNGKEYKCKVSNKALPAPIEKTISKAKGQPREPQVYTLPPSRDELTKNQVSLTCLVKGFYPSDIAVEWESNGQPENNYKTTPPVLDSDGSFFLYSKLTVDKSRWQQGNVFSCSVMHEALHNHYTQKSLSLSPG
Chain of activin type IIA receptor (ActRIIA) on C2C12/pMARE-luc cells co-transfected with ALK4 (P27037 20-513): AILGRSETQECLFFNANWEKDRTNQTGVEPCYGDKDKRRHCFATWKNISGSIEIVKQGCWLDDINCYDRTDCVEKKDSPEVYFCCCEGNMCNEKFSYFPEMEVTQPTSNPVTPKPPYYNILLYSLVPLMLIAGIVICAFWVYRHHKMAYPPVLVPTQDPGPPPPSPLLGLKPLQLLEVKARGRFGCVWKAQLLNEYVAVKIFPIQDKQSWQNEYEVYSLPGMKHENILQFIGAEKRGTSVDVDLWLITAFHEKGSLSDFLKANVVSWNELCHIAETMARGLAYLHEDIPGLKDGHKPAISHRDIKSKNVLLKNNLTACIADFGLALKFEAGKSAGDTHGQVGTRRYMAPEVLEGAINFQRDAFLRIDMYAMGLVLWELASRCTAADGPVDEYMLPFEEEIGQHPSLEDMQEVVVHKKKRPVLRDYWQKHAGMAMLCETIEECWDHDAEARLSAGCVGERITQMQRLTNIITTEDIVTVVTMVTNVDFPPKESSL

Row | Binder | Kd (ActRIIA-huFc [1]) | Cell-Based IC50, ActRIIA Signaling (luciferase reporter, C2C12/pMARE-luc cells with ActRIIA + ALK4, 4 nM myostatin or activin) [2] | Cell-Based IC50, ActRIIB Signaling (luciferase reporter, C2C12/pMARE-luc cells with ActRIIB + ALK4, 4 nM myostatin or activin) [3] | Kd (ActRIIA-huFc [4]) | Kd (ActRIIA-huFc [5]) | fold improvement of affinity over the parental molecule R31-1 (ActRIIA-huFc [5])
1 | Anti-ActRIIB human IgG R31-1 (antibody, V domains shown, Human IgG2/kappa from Xenomouse immunization with ActRIIB-huFc; also called parental 31-1; parental molecule R31-1) VH: EVQLLESGGGLVQPGGSLRLSCAASGFTFRNYAMSWVRQAPGKGLEWVSGISVTGGSTYYTDSVKGRFTVSRDNSRNTLYLQMNSLRAEDTAVYYCAKVYYSSFFDYWGQGTLVTVSS VL: QTVVTQEPSFSVSPGGTVTLTCGFNSGSVSTSYYPSWYQQTPGQAPRTLIYNTNTRSSGVPDRFSGSILGNKAALTITGAQADDESDYYCVLYMGSGIWVFGGGTKLTVLG | 4000 pM | 2 nM | 8 nM | ~1000 pM | – | –
2 | M37 (antibody, human IgG2, lambda, V domains shown) VH: EVQLLESGGGLVQPGGSLRLSCAASGFTFRNYAMAWVRQAPGKGLEWVSGISVTGGSTFYTDSVKGRFTVSRDNSRNTLYLQMNSLRAEDTAVYYCAKVYYTSFFDYWGQGTLVTVSS VL: QTVVTQEPSFSVSPGGTVTLTCGFNSGSVSTSYYPSWYQQTPGQAPRTLIYNTNTRSSGVPDRFSGSILGNKAALTITGAQADDESDYYCVLWMGSGIWVFGGGTKLTVLG | – | – | – | – | < 1 pM | ≥ 1000 fold

Second part, the binder after the results:

Row | Kd (ActRIIA-huFc [1]) | Cell-Based IC50, ActRIIA Signaling (luciferase reporter, C2C12/pMARE-luc cells with ActRIIA + ALK4, 4 nM myostatin or activin) [2] | Cell-Based IC50, ActRIIB Signaling (luciferase reporter, C2C12/pMARE-luc cells with ActRIIB + ALK4, 4 nM myostatin or activin) [3] | Kd (ActRIIA-huFc [4]) | Kd (ActRIIA-huFc [5]) | fold improvement of affinity over the parental molecule R31-1 (ActRIIA-huFc [5]) | Binder
3 | – | – | – | – | < 1 pM | ≥ 1000 fold | M25 (antibody, human IgG2, lambda, V domains shown) VH: EVQLLESGGGLVQPGGSLRLSCAASGFTFRNSAMSWVRQAPGKGLEWVSAISVTGGSTYYTDSVKGRFTVSRDNSRNTLYLQMNSLRAEDTAVYYCAKVYYYSFFDYWGQGTLVTVSS VL: QTVVTQEPSFSVSPGGTVTLTCGFNSGSVSTSYYPSWYQQTPGQAPRTLIYNTNTRSSGVPDRFSGSILGNKAALTITGAQADDESDYYCVLYMGSGIHVFGGGTKLTVLG
4 | 1 pM | – | 2 nM | – | < 1 pM | ≥ 1000 fold | M43 (antibody, human IgG2, lambda, V domains shown, fully human) VH: EVQLLESGGGLVQPGGSLRLSCAASGFTFRNSAMSWVRQAPGKGLEWVSGISVTGGSTFYTDSVKGRFTVSRDNSRNTLYLQMNSLRAEDTAVYYCAKVYYYSFFDYWGQGTLVTVSS VL: QTVVTQEPSFSVSPGGTVTLTCGFNSGSVSTSYWPSWYQQTPGQAPRTLIYNTNTRSSGVPDRFSGSILGNKAALTITGAQADDESDYYCVLWMGSGIWVFGGGTKLTVLG
